Source: patent US11931423B2, “Glucose oxidase-nanoparticle bioconjugates for cancer treatment” (UNIVERSITY OF PITTSBURGH—OF THE COMMONWEALTH SYSTEM OF …, priority 2017, dated 2024)

Key:
[1] = tested on: ROS; test: TMB-based ROS activity assay; type: biochemical; conditions: in the presence of glucose, 37° C., 2 h, pH 4
Text: Production of ROS by the GOx-SPION bioconjugate was characterized by using a color agent 3,3′,5,5′-tetramethylbenzidine (TMB). TMB is known to be able to produce a blue color in the presence of ROS, which can be quantified by measuring the absorption at the wavelength of 650 nm. As a comparison, the levels of ROS produced by GOx and SPION alone, a mixture of GOx and SPION without conjugation, as well as the mAb-GOx-SPION bioconjugate were characterized.
The TMB-based ROS activity assay was carried out by using the following process. 20 μL SPION (5.0 mg/mL), GOx (1.0 mg/mL), a mixture of GOx (0.5 mg/mL) and SPION (2.5 mg/mL) without conjugation, GOx-SPION (5.0 mg/mL), and mAb-GOx-SPION (5.0 mg/mL) were each added into 380 μL of reaction buffer (0.1 M NaAc, pH 4, 50 μg TMB), followed by addition of either 100 μL of 100 mM glucose or 100 μL of DiH2O. After the mixtures were incubated at 37° C. for 2 h, the color change was detected with a Hitachi UV-Vis spectrophotometer.

[2] = tested on: 4T1 cells; test: In vivo therapeutic efficacy in 4T1 tumor-bearing mice; conditions: for tumor growth (relative tumor volume): 4T1 tumors, single tail vein injection, 21 days, SPION-GOx 5 mg/kg, SPION 5 mg/kg, GOx 8.5 nmol/kg
Description: 4T1 cells (2×10^5 cell/mouse) were implanted subcutaneously into the right shoulders of female balb/c mice (˜20 g). In vivo therapeutic efficacy experiments were performed when the tumor reached 6˜8 mm in average diameter (10 days after implant). 3-5 mice were randomly assigned to 4 groups, to which the following agents were administered via tail vein injection: Group A were administered with a mixture of unconjugated SPION and GOx at the dosage of 5 mg/kg and 8.5 nmol/kg respectively; Group B were administered with GOx at the dosage of 8.5 nmol/kg; Group C were administered with 200 μL saline as control; and Group D were administered with a single dose of 5 mg/mL SPION-GOx in saline at a dosage of 5 mg/kg. All the administration was made at about the same time of the day. The size and size distribution of SPION-GOx bioconjugates were determined using DLS before injection to ensure the conjugation was complete and no precipitation was formed in the suspension. The SPION-GOx PBS solution to be used on animal study was tested using a TMB assay to verify the effective generation of ROS. The weight and health conditions of the mice were monitored daily. The tumor sizes were measured and recorded every other day in the first 12 days, and then every 3 days until 21 days post injection, at which time point the tumors were harvested. The volumes of the tumors were calculated by the following equation: V=L×W^2/2.

[3] = tested on: 4T1 breast cancer xenografts; test: Biodistribution in mice with 4T1 breast cancer xenografts; type: in vivo; conditions: 150 μg, mice with 4T1 xenografts, 1 day after injection
Description: To visualize the biodistribution of GOx-SPION within mouse models, GOx-SPION was tagged with a fluorescent dye (Cy7 moiety). 150 μg of the resulting SPION-GOx-Cy7 bioconjugate was administered to 5 mice having 4T1 breast cancer xenografts. The biodistribution of the bioconjugates was imaged at 1 day, 3 days, 4 days, 5 days, 6 days, and 7 days after injection (see FIGS. 12A-12B).

Row | Molecule | production of ROS (peak height at 650 nm, TMB) [1] | tumor growth (relative tumor volume) [2] | side effects (weight loss or death) ([2]; 4T1 tumor mice, 5 mg/kg tail vein) | body weight loss during treatment ([2]; mouse, in vivo, 5 mg/kg) | biodistribution (uptake) [3]
1 | glucose oxidase (protein, UniProt P13006 17-605, looked up) Glucose oxidase: LPHYIRSNGIEASLLTDPKDVSGRTVDYIIAGGGLTGLTTAARLTENPNISVLVIESGSYESDRGPIIEDLNAYGDIFGSSVDHAYETVELATNNQTALIRSGNGLGGSTLVNGGTWTRPHKAQVDSWETVFGNEGWNWDNVAAYSLQAERARAPNAKQIAAGHYFNASCHGVNGTVHAGPRDTGDDYSPIVKALMSAVEDRGVPTKKDFGCGDPHGVSMFPNTLHEDQVRSDAAREWLLPNYQRPNLQVLTGQYVGKVLLSQNGTTPRAVGVEFGTHKGNTHNVYAKHEVLLAAGSAVSPTILEYSGIGMKSILEPLGIDTVVDLPVGLNLQDQTTATVRSRITSAGAGQGQAAWFATFNETFGDYSEKAHELLNTKLEQWAEEAVARGGFHNTTALLIQYENYRDWIVNHNVAYSELFLDTAGVASFDVWDLLPFTRGYVHILDKDPYLHHFAYDPQYFLNELDLLGQAAATQLARNISNSGAMQTYFAGETIPGDNLAYDADLSAWTEYIPYHFRPNYHGVGTCSMMPKEMGGVVDNAARVYGVQGLRVIDGSIPPTQMSSHVMTVFYAMALKISDAILEDYASMQ | neither GOx nor SPION alone is able to produce ROS | inhibited tumor growth to a much lesser extent | – | – | –
2 | GOx-SPION: glucose oxidase conjugated to superparamagnetic iron oxide nanoparticle via Tz/TCO bioorthogonal ligation (conjugate, UniProt P13006 17-605, looked up, superparamagnetic iron oxide nanoparticle) Glucose oxidase: LPHYIRSNGIEASLLTDPKDVSGRTVDYIIAGGGLTGLTTAARLTENPNISVLVIESGSYESDRGPIIEDLNAYGDIFGSSVDHAYETVELATNNQTALIRSGNGLGGSTLVNGGTWTRPHKAQVDSWETVFGNEGWNWDNVAAYSLQAERARAPNAKQIAAGHYFNASCHGVNGTVHAGPRDTGDDYSPIVKALMSAVEDRGVPTKKDFGCGDPHGVSMFPNTLHEDQVRSDAAREWLLPNYQRPNLQVLTGQYVGKVLLSQNGTTPRAVGVEFGTHKGNTHNVYAKHEVLLAAGSAVSPTILEYSGIGMKSILEPLGIDTVVDLPVGLNLQDQTTATVRSRITSAGAGQGQAAWFATFNETFGDYSEKAHELLNTKLEQWAEEAVARGGFHNTTALLIQYENYRDWIVNHNVAYSELFLDTAGVASFDVWDLLPFTRGYVHILDKDPYLHHFAYDPQYFLNELDLLGQAAATQLARNISNSGAMQTYFAGETIPGDNLAYDADLSAWTEYIPYHFRPNYHGVGTCSMMPKEMGGVVDNAARVYGVQGLRVIDGSIPPTQMSSHVMTVFYAMALKISDAILEDYASMQ | synergistic activity between conjugated GOx and SPION | significant slowdown of tumor growth | no severe side effects | did not experience any significant body weight loss | –
3 | SPION-GOx-Cy7: GOx-SPION tagged with a fluorescent dye (Cy7 moiety) (conjugate, UniProt P13006 17-605, looked up, SPION conjugate, Cy7 dye) Glucose oxidase: LPHYIRSNGIEASLLTDPKDVSGRTVDYIIAGGGLTGLTTAARLTENPNISVLVIESGSYESDRGPIIEDLNAYGDIFGSSVDHAYETVELATNNQTALIRSGNGLGGSTLVNGGTWTRPHKAQVDSWETVFGNEGWNWDNVAAYSLQAERARAPNAKQIAAGHYFNASCHGVNGTVHAGPRDTGDDYSPIVKALMSAVEDRGVPTKKDFGCGDPHGVSMFPNTLHEDQVRSDAAREWLLPNYQRPNLQVLTGQYVGKVLLSQNGTTPRAVGVEFGTHKGNTHNVYAKHEVLLAAGSAVSPTILEYSGIGMKSILEPLGIDTVVDLPVGLNLQDQTTATVRSRITSAGAGQGQAAWFATFNETFGDYSEKAHELLNTKLEQWAEEAVARGGFHNTTALLIQYENYRDWIVNHNVAYSELFLDTAGVASFDVWDLLPFTRGYVHILDKDPYLHHFAYDPQYFLNELDLLGQAAATQLARNISNSGAMQTYFAGETIPGDNLAYDADLSAWTEYIPYHFRPNYHGVGTCSMMPKEMGGVVDNAARVYGVQGLRVIDGSIPPTQMSSHVMTVFYAMALKISDAILEDYASMQ | – | – | – | – | initial uptake of the bioconjugates was to tumor cells
